The supplement of paper PMC9112550, “Optimization of the antimicrobial peptide Bac7 by deep mutational scanning” (BMC Biology, 2022)

tested on: Escherichia coli TOP10; test: shrunken log2 fold change of peptide-encoding DNA abundance (4.5 h post-induction vs induction); higher = less antimicrobial activity (less host growth inhibition); settings: time post-induction: 4.5 h; library: site-saturation at positions 5, 18, 19, 20
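Further: peptides expressed intracellularly from a pBAD plasmid library in pooled LB shake-flask culture, induced with 0.3% L-arabinose, DNA abundance read by NGS, three biological replicates, DESeq2 with apeglm shrinkage.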

Sequence | shrunken log2 fold change
RRIRERPPRLPRPRPRPGSHPRP | -0.152
RRIRERPPRLPRPRPRPECPPRP | 0.0592
RRIRERPPRLPRPRPRPHEPPRP | -0.0545
RRIRDRPPRLPRPRPRPKCHPRP | 0.028
RRIRNRPPRLPRPRPRPVRWPRP | 0.703
RRIRQRPPRLPRPRPRPWQNPRP | 0.0546
RRIRGRPPRLPRPRPRPIMNPRP | 0.237
RRIRPRPPRLPRPRPRPCTPPRP | -0.167
RRIRARPPRLPRPRPRPHCHPRP | -0.195
RRIRKRPPRLPRPRPRPYSAPRP | -0.134
RRIRQRPPRLPRPRPRPFNQPRP | 0.00312
RRIRRRPPRLPRPRPRPWGHPRP | -0.165
RRIRWRPPRLPRPRPRPAHSPRP | 0.321
RRIRSRPPRLPRPRPRPIEPPRP | 0.0268
RRIRKRPPRLPRPRPRPQGCPRP | 0.421
RRIRIRPPRLPRPRPRPFKCPRP | 0.000802
RRIRLRPPRLPRPRPRPTDVPRP | -0.524
RRIRLRPPRLPRPRPRPKDYPRP | -0.0534
RRIRDRPPRLPRPRPRPHCPPRP | -0.191
RRIRIRPPRLPRPRPRPMAKPRP | -0.00776
RRIRWRPPRLPRPRPRPAITPRP | 0.188
RRIRKRPPRLPRPRPRPTKVPRP | 1.21
RRIRSRPPRLPRPRPRPPDWPRP | 0.661
RRIRVRPPRLPRPRPRPRCGPRP | -0.0269
RRIRGRPPRLPRPRPRPFTHPRP | 0.0753

Sequence | shrunken log2 fold change
RRIRPRPPRLPRPRPRPNAVPRP | 0.0397
RRIRIRPPRLPRPRPRPMFDPRP | -0.0483
RRIRQRPPRLPRPRPRPPYLPRP | -0.289
RRIRTRPPRLPRPRPRPREPPRP | 1.21
RRIRERPPRLPRPRPRPKMTPRP | -0.0406
RRIRPRPPRLPRPRPRPEPHPRP | 0.298
RRIRERPPRLPRPRPRPNTAPRP | 0.0197
RRIRCRPPRLPRPRPRPAMSPRP | 0.0552
RRIRYRPPRLPRPRPRPDFFPRP | 0.373
RRIRNRPPRLPRPRPRPIEAPRP | 0.0895
RRIRMRPPRLPRPRPRPTFKPRP | 0.198
RRIRGRPPRLPRPRPRPNWRPRP | 0.595
RRIRVRPPRLPRPRPRPILRPRP | 0.0599
RRIRSRPPRLPRPRPRPDREPRP | 0.154
RRIRIRPPRLPRPRPRPNNSPRP | -0.655
RRIRVRPPRLPRPRPRPPECPRP | -0.186
RRIRDRPPRLPRPRPRPLPIPRP | 0.162
RRIRYRPPRLPRPRPRPAWAPRP | 0.253
RRIRHRPPRLPRPRPRPESIPRP | -0.107
RRIRCRPPRLPRPRPRPWTNPRP | -0.0849
RRIRSRPPRLPRPRPRPYNQPRP | -0.642
RRIRLRPPRLPRPRPRPQRVPRP | 0.0215
RRIRNRPPRLPRPRPRPPPKPRP | 1.5
RRIRVRPPRLPRPRPRPFEAPRP | -0.193
RRIRPRPPRLPRPRPRPKTQPRP | -0.02

Sequence | shrunken log2 fold change
RRIRNRPPRLPRPRPRPWFFPRP | -0.0137
RRIRMRPPRLPRPRPRPWISPRP | 0.00707
RRIRHRPPRLPRPRPRPVMWPRP | 0.21
RRIRNRPPRLPRPRPRPMGVPRP | 0.165
RRIRSRPPRLPRPRPRPEMDPRP | -0.0847
RRIRWRPPRLPRPRPRPNKEPRP | -0.0697
RRIRQRPPRLPRPRPRPFHEPRP | -0.0703
RRIRMRPPRLPRPRPRPWMKPRP | -0.234
RRIRERPPRLPRPRPRPKAPPRP | 0.124
RRIRWRPPRLPRPRPRPAGFPRP | 0.272
RRIRMRPPRLPRPRPRPRCDPRP | 0.397
RRIRDRPPRLPRPRPRPFGHPRP | -0.138
RRIRPRPPRLPRPRPRPSISPRP | -0.37
RRIRYRPPRLPRPRPRPHFIPRP | -0.214
RRIRIRPPRLPRPRPRPMHCPRP | -0.00192
RRIRSRPPRLPRPRPRPSVLPRP | -0.222
RRIRIRPPRLPRPRPRPQACPRP | 0.126
RRIRPRPPRLPRPRPRPRFHPRP | -0.108
RRIRDRPPRLPRPRPRPLRGPRP | 0.112
RRIRKRPPRLPRPRPRPAIQPRP | 0.396
RRIRCRPPRLPRPRPRPRRKPRP | 0.399
RRIRCRPPRLPRPRPRPDSIPRP | -0.0365
RRIRMRPPRLPRPRPRPDMFPRP | 2.25
RRIRFRPPRLPRPRPRPAERPRP | 0.0603
RRIRQRPPRLPRPRPRPNEDPRP | 0.031

Sequence | shrunken log2 fold change
RRIRGRPPRLPRPRPRPCGYPRP | 0.216
RRIRIRPPRLPRPRPRPHTGPRP | -0.356
RRIRARPPRLPRPRPRPDHVPRP | 0.0166
RRIRNRPPRLPRPRPRPDVCPRP | -0.00695
RRIRLRPPRLPRPRPRPNALPRP | -0.0646
RRIRCRPPRLPRPRPRPHWFPRP | -0.0681
RRIRNRPPRLPRPRPRPVGPPRP | 0.448
RRIRKRPPRLPRPRPRPLWAPRP | 0.452
RRIRTRPPRLPRPRPRPFTHPRP | -0.174
RRIRHRPPRLPRPRPRPKYGPRP | 0.0196
RRIRVRPPRLPRPRPRPKSTPRP | -0.158
RRIRNRPPRLPRPRPRPMISPRP | -0.0707
RRIRSRPPRLPRPRPRPTGRPRP | 0.15
RRIRVRPPRLPRPRPRPQYEPRP | -0.174
RRIRHRPPRLPRPRPRPSSEPRP | -0.102
RRIRARPPRLPRPRPRPPDKPRP | 0.572
RRIRKRPPRLPRPRPRPGLDPRP | 0.626
RRIRCRPPRLPRPRPRPMLQPRP | 0.0596
RRIRWRPPRLPRPRPRPNIDPRP | -0.21
RRIRQRPPRLPRPRPRPMWYPRP | -0.298
RRIRIRPPRLPRPRPRPLRTPRP | -0.0568
RRIRVRPPRLPRPRPRPCWVPRP | 0.0559
RRIRYRPPRLPRPRPRPWLNPRP | -0.367
RRIRLRPPRLPRPRPRPGIIPRP | -0.116
RRIRCRPPRLPRPRPRPHFVPRP | -0.23

Sequence | shrunken log2 fold change
RRIRPRPPRLPRPRPRPLFLPRP | -0.0037
RRIRVRPPRLPRPRPRPKIYPRP | -0.309
RRIRTRPPRLPRPRPRPMVDPRP | -0.00822
RRIRARPPRLPRPRPRPWAIPRP | 0.253
RRIRDRPPRLPRPRPRPFWCPRP | 0.136
RRIRLRPPRLPRPRPRPDHLPRP | -0.0674
RRIRFRPPRLPRPRPRPCLNPRP | -0.244
RRIRARPPRLPRPRPRPTADPRP | 0.83
RRIRARPPRLPRPRPRPHKRPRP | 0.157
RRIRYRPPRLPRPRPRPQWQPRP | -0.00114
RRIRWRPPRLPRPRPRPKPEPRP | 0.351
RRIRVRPPRLPRPRPRPWGDPRP | 0.148
RRIRNRPPRLPRPRPRPTIRPRP | -0.0347
RRIRARPPRLPRPRPRPNMIPRP | -0.194
RRIRDRPPRLPRPRPRPIVVPRP | 0.218
RRIRDRPPRLPRPRPRPKRDPRP | 0.145
RRIRTRPPRLPRPRPRPAAPPRP | 0.275
RRIRQRPPRLPRPRPRPVNRPRP | 0.00086
RRIRQRPPRLPRPRPRPFIFPRP | -0.257
RRIRARPPRLPRPRPRPHCFPRP | 0.36
RRIRFRPPRLPRPRPRPYQLPRP | -0.573
RRIRQRPPRLPRPRPRPVWYPRP | -0.254
RRIRPRPPRLPRPRPRPTGVPRP | 0.0313
RRIRLRPPRLPRPRPRPPEFPRP | 0.0526
RRIRGRPPRLPRPRPRPAMAPRP | 0.913

Sequence | shrunken log2 fold change
RRIRQRPPRLPRPRPRPDMNPRP | -0.654
RRIRCRPPRLPRPRPRPGYNPRP | -0.88
RRIRQRPPRLPRPRPRPYVQPRP | -0.00748
RRIRYRPPRLPRPRPRPGMVPRP | 2
RRIRHRPPRLPRPRPRPIIKPRP | -0.279
RRIRSRPPRLPRPRPRPDIHPRP | -1.3
RRIRTRPPRLPRPRPRPLATPRP | 0.0927
RRIRSRPPRLPRPRPRPMVDPRP | 0.197
RRIRYRPPRLPRPRPRPSYRPRP | -0.0896
RRIRSRPPRLPRPRPRPKLNPRP | -0.103
RRIRHRPPRLPRPRPRPAAEPRP | 0.334
RRIRWRPPRLPRPRPRPKSQPRP | 0.263
RRIRVRPPRLPRPRPRPNVWPRP | 0.0782
RRIRGRPPRLPRPRPRPQMRPRP | 0.899
RRIRKRPPRLPRPRPRPWKNPRP | -0.00973
RRIRVRPPRLPRPRPRPLNDPRP | 0.171
RRIRQRPPRLPRPRPRPSLYPRP | -0.233
RRIRVRPPRLPRPRPRPIICPRP | -0.448
RRIRARPPRLPRPRPRPTLNPRP | 0.496
RRIRNRPPRLPRPRPRPNVGPRP | -0.183
RRIRARPPRLPRPRPRPEIKPRP | 1.77
RRIRARPPRLPRPRPRPYAGPRP | -0.534
RRIRTRPPRLPRPRPRPNTYPRP | -0.614
RRIRKRPPRLPRPRPRPHVFPRP | 0.015
RRIRFRPPRLPRPRPRPWYNPRP | -0.134
